Measured values published in publication PMC10514341, “Organisation of the orthobunyavirus tripodal spike and the structural changes induced by low pH and K^+ during entry” (Nature Communications, 2023).

B1: Bunyamwera virus (BUNV) glycoprotein Gc (natural protein)
chain: EEDCWKNEELKEDCVGPLIAPKDCTDKDHKTYLSEASLLATAKKITQVDAENVEILGKTMESAIRVIERQKTYHRMHLLEAVFLNKHCDYYKMFEHNSGYSQVKWRMMIKTQHFDICALQANSPFCAQCIADNSCAQGSWEFDTHMNSTYSSKVDNFKHDFSLFLRIFEAAFPGTAYVHLLTNIKEKKPYQAVSMIEKIKKKFPNNKLLIGYLDFGKYLLGLSHASTYELQQRQLDKLYQPTELTRSGGQQTSLANSVVGQATKECKKYKDVSCLSPRFGIPLEDLISCCDQPNYNIYKKPKKVYKAHDKEETWCINDQHCLVDFVPAEADTVEKLKPMKCWLVDPGKNDDVYSIAIKTCRVVDKGVCTVNSQKWNIIKCDSGPLYYSDHIPGEDTGNDIGHYCVSAGCKTDRYPINPDVVTDCVWEFTSRKSQYIGKISMQSLEDYEKALTDRLTHTLETYSFAPLENLPHIKPVYKYITAQGVENSDGIEGAFITASIPAAGGTSIGYNVRSKDGFPLLDLIVFVKSAVIKSTYNHIYDTGPTISINTKHDEHCTGQCPSNIEHEANWLTFSQERTSRWGCEEFGCLAVNTGCVFGSCQDVIRPETKVYRKAVDEVVILTVCITYPGHTFCTEINAIEPKITEEIELQFKTVDTKTLPYIVAVNNHKLYSGQINDLGTFGQMCGNVQKTNSSILGTGTPKFDYTCHGASRKDIIVRRCYNNNFDSCKLLKEETQLIFNDDHDTITVYNTNHLIGELAIKLILGDIQYKLFTETLDLQIDAKCVGCPDCFESYSCNFQIVSNIDTICSLEGPCDTFHNRISIKAMQQNYAVKLSCQKDPRPSGTFKICNREYTVVFHTVAKDDKIEINVGDQTSFIKEKDDRCKTWLCRVRDEGISVIFEPIKAFFGSYFSIFFYIIVVVVVGFLIIYIFMPMFMKLKEVLKANEKLYLQEIKQK
modifications: N-linked glycan at N624
notes: Glycoprotein Gc of Bunyamwera virus, cut from the M segment polyprotein (Gn-NSm-Gc); ectodomain 478-1382; head, stalk and floor (fusion domain) regions; membrane-anchored in the virion envelope; Native Gc in the envelope of purified virions; also called BUNV Gc
B2: Bunyamwera virus (BUNV) glycoprotein Gn (natural protein, UniProt P04505 17-302, looked up)
chain: SPVITRCFHGGQLIAERKSQTSISEFCIKDDVSMLKSEIVYTKNDTGIFGHSKVFRHWTITDWKACNPVVTAGGSINVIEVDKNLNLVTRNYVCTGDCTITVDRKNAQIIFQTDKLNHFEVTGTTISTGWFKSKASVTLDRTCEHIKVSCGKKTLQFHACFKQHMSCVRFLHRSILPGSMAISICQNIELIIITILALCIFIIMIILTKTYICYVLIPVFMPIAFAYGWAYNRSCKKCTCCGLAYHPFTNCGSYCVCGSKFETSDRMRMHRESGLCQGFKSLRVAR
modifications: N-linked glycan at N60
notes: Glycoprotein Gn of Bunyamwera virus, cut from the M segment polyprotein (Gn-NSm-Gc); ectodomain 17-205; membrane-anchored in the virion envelope; Native Gn in the envelope of purified virions; also called BUNV Gn

Molecular target: the molecule itself
Test: cryo-EM structure; cryo-electron tomography and subtomogram averaging (PEET, C3 symmetry) of glycoprotein spikes on purified BUNV virions, pH 7.3/no K+, 2 hr at 37 °C; tripod average ~16 Å, floor average ~13 Å (GS-FSC); X-ray head/stalk structures and an AlphaFold Gn-Gc model fitted into the maps

Protein | stoichiometry N
B1 | 3
B2 | 3
